This is an account of results in patent US6875581 (GENOPIA BIOMEDICAL, dated 2005).

Where no end group is shown, it is not given here. [ ]: non-standard residue; d: D form. pS = N[C@@H](COP(=O)(O)O)C(=O)O

Test [1] addresses T1, calcineurin-A-beta2/calcineurin-B (human, UniProt P16298 2-524; P63098 1-170).
T1 construct: also called CNAb2-pQE30 product
The test is described as follows: laser fluorescence correlation spectroscopy (FCS).

For test [2], the target named is T2, calcineurin-A-beta1/calcineurin-B (human, UniProt P16298 2-524; P63098 1-170).
T2 construct: also called CNAb1-pQE30 product
The test is described as follows: laser fluorescence correlation spectroscopy (FCS).

B1: RII-Fluophos (peptide)
peptide: DLDVPIPGRFDRRV[pS](fluorescein)VAAE
notes: Synthetic peptide; It was not converted by calcineurin; also called Fluophos-RII-peptide; fluorescent labeled RII-peptide
For B1, the binding result in test [1] and in test [2] was “binds” each time.
